Measurements as given in the RNAGym collection of RNA variant scans (doi:10.7554/elife.80360).

B1: Hammerhead Ribozyme (parent)
chain: ACCGGAUGUGCUUUCCGGUCUGAUGAGUCCGUGAGGACGAAACAG

Variants of: B1
Test: self-cleavage, relative activity (ratio to wild type); higher = more cleavage; co-transcriptional

Variant | self-cleavage
ACCGGAUGUGCUUUCCGUUCUGAUCAGUCCGUGAGGACGAAACAG | 0.322
ACCGGAUGUGCUUUCCGUUCUGAUAAGUCCGUGAGGACGAAACAG | 0.369
ACCGGAUGUGCUUUCCGUUCUGAUUAGUCCGUGAGGACGAAACAG | 0.324
ACCGGAUGUGCUUUCCGCUCUGAUAAGUCCGUGAGGACGAAACAG | 0.328
ACCGGAUGUGCUUUCCGCUCUGAUCAGUCCGUGAGGACGAAACAG | 0.347
ACCGGAUGUGCUUUCCGCUCUGAUUAGUCCGUGAGGACGAAACAG | 0.284
ACCGGAUGUGCUUUCCGCUCUGAUGAGUCCGGGAGGACGAAACAG | 0.503
ACCGGAUGUGCUUUCCGCUCUGAUGAGUCCGAGAGGACGAAACAG | 0.554
ACCGGAUGUGCUUUCCGCUCUGAUGAGUCCGCGAGGACGAAACAG | 0.446
ACCGGAUGUGCUUUCCGUUCUGAUGAGUCCGUAAGGACGAAACAG | 0.948
ACCGGAUGUGCUUUCCGUUCUGAUGAGUCCGUUAGGACGAAACAG | 0.705
ACCGGAUGUGCUUUCCGUUCUGAUGAGUCCGUCAGGACGAAACAG | 0.602
ACCGGAUGUGCUUUCCGCUCUGAUGAGUCCGUGAGGACUAAACAG | 0.372
ACCGGAUGUGCUUUCCGCUCUGAUGAGUCCGUGAGGACAAAACAG | 0.289
ACCGGAUGUGCUUUCCGCUCUGAUGAGUCCGUGAGGACCAAACAG | 0.289
ACCGGAUGUGCUUUCCGUUCUGAUGAGUCCGUGGGGACGAAACAG | 0.493
ACCGGAUGUGCUUUCCGUUCUGAUGAGUCCGUGCGGACGAAACAG | 0.407
ACCGGAUGUGCUUUCCGUUCUGAUGAGUCCGUGUGGACGAAACAG | 0.51
ACCGGAUGUGCUUUCCGUUCUGAUGAGUCCGUGAGGACGAAGCAG | 0.37

Variant | self-cleavage
ACCGGAUGUGCUUUCCGUUCUGAUGAGUCCGUGAGGACGAACCAG | 0.371
ACCGGAUGUGCUUUCCGUUCUGAUGAGUCCGUGAGGACGAAUCAG | 0.339
ACCGGAUGUGCUUUCCGUUCUGAUGAGUCCGUGAGGACGAAACUG | 0.368
ACCGGAUGUGCUUUCCGUUCUGAUGAGUCCGUGAGGACGAAACGG | 0.942
ACCGGAUGUGCUUUCCGUUCUGAUGAGUCCGUGAGGACGAAACCG | 0.431
ACCGGAUGUGCUUUCCGCUCUGAUGAGUCUGUGAGGACGAAACAG | 0.606
ACCGGAUGUGCUUUCCGUUCUGAUGAGUCCGUGAUGACGAAACAG | 0.532
ACCGGAUGUGCUUUCCGUUCUGAUGAGUCCGUGAAGACGAAACAG | 0.555
ACCGGAUGUGCUUUCCGUUCUGAUGAGUCCGUGACGACGAAACAG | 0.515
ACCGGAUGUGCUUUCCGUUCUGAUGAGUCCGUGAGGACGAAACAG | 0.875
ACCGGAUGUGCUUUCCGUUCUGAUGAGUCUGUGAGGACGAAACAG | 0.849
ACCGGAUGUGCUUUCCGUUCUGAUGAGUCGGUGAGGACGAAACAG | 0.493
ACCGGAUGUGCUUUCCGUUCUGAUGAGUCAGUGAGGACGAAACAG | 0.556
ACCGGAUGUGCUUUCCGUUCUGAUGAGUCCAUGAGGACGAAACAG | 0.905
ACCGGAUGUGCUUUCCGUUCUGAUGAGUCCCUGAGGACGAAACAG | 0.685
ACCGGAUGUGCUUUCCGUUCUGAUGAGUCCUUGAGGACGAAACAG | 0.781
ACCGGAUGUGCUUUCCGUUCUGAUGAGUCCGUGAGGACGCAACAG | 0.394
ACCGGAUGUGCUUUCCGUUCUGAUGAGUCCGUGAGGACGUAACAG | 0.345
ACCGGAUGUGCUUUCCGUUCUGAUGAGUCCGUGAGGACGGAACAG | 0.357

Variant | self-cleavage
ACCGGAUGUGCUUUCCGCUCUGAUGAGUCCGUGAGAACGAAACAG | 0.347
ACCGGAUGUGCUUUCCGCUCUGAUGAGUCCGUGAGUACGAAACAG | 0.337
ACCGGAUGUGCUUUCCGCUCUGAUGAGUCCGUGAGCACGAAACAG | 0.352
ACCGGAUGUGCUUUCCGCUCUUAUGAGUCCGUGAGGACGAAACAG | 0.29
ACCGGAUGUGCUUUCCGCUCUAAUGAGUCCGUGAGGACGAAACAG | 0.342
ACCGGAUGUGCUUUCCGCUCUCAUGAGUCCGUGAGGACGAAACAG | 0.333
ACCGGAUGUGCUUUCCGCUCGGAUGAGUCCGUGAGGACGAAACAG | 0.285
ACCGGAUGUGCUUUCCGCUCAGAUGAGUCCGUGAGGACGAAACAG | 0.333
ACCGGAUGUGCUUUCCGCUCCGAUGAGUCCGUGAGGACGAAACAG | 0.284
ACCGGAUGUGCUUUCCGCUCUGAUGAGUCCGUGAAGACGAAACAG | 0.537
ACCGGAUGUGCUUUCCGCUCUGAUGAGUCCGUGACGACGAAACAG | 0.35
ACCGGAUGUGCUUUCCGCUCUGAUGAGUCCGUGAUGACGAAACAG | 0.399
ACCGGAUGUGCUUUCCGUUCUGAUGAUUCCGUGAGGACGAAACAG | 0.53
ACCGGAUGUGCUUUCCGUUCUGAUGAAUCCGUGAGGACGAAACAG | 0.567
ACCGGAUGUGCUUUCCGUUCUGAUGACUCCGUGAGGACGAAACAG | 0.427
ACCGGAUGUGCUUUCCGCUCUGAUGAGUCCGUAAGGACGAAACAG | 0.765
ACCGGAUGUGCUUUCCGCUCUGAUGAGUCCGUUAGGACGAAACAG | 0.708
ACCGGAUGUGCUUUCCGCUCUGAUGAGUCCGUCAGGACGAAACAG | 0.616
ACCGGAUGUGCUUUCCGUUCUGAUGGGUCCGUGAGGACGAAACAG | 0.339
